From PMC10300122, “K235 acetylation couples with PSPC1 to regulate the m^6A demethylation activity of ALKBH5 and tumorigenesis” (Nature Communications, 2023) come the findings set out here.

The target of the test is T1, recombinant PSPC1-His (UniProt Q8WXF1 1-523).
T1 construct: paraspeckle component 1 (PSPC1) cloned into the pET 26b vector; source: E. coli BL21 (DE3), purified (His-tag Protein Purification Kit)
T1 sequence (looked up): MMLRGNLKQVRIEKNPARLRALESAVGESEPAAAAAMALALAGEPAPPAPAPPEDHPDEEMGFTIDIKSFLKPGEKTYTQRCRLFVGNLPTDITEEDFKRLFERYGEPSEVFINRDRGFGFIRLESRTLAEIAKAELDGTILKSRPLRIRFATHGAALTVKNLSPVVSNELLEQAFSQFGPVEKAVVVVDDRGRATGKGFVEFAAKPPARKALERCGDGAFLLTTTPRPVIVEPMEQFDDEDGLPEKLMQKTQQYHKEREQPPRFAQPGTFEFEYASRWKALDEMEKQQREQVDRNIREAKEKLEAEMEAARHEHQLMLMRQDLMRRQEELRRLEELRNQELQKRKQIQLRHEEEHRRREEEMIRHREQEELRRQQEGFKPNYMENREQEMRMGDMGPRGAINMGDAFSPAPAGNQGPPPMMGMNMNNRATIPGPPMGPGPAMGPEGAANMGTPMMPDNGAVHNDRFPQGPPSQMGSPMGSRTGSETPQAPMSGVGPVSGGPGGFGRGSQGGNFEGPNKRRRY
Briefly: pull-down; GST pull-down: GST-ALKBH5 on glutathione beads (untreated or K235-acetylated by immunopurified KAT8) incubated with PSPC1-His at 4 °C for 1 h; washed with 20 mM HEPES pH 7.6, 0.1 M KCl, 0.1 μM EDTA, 10% glycerol, 0.02% NP-40; western blot. The conditions noted are these: both partners purified.

B1: recombinant GST-ALKBH5 (enzyme, UniProt Q6P6C2 1-394, looked up)
chain: MAAASGYTDLREKLKSMTSRDNYKAGSREAAAAAAAAVAAAAAAAAAAEPYPVSGAKRKYQEDSDPERSDYEEQQLQKEEEARKVKSGIRQMRLFSQDECAKIEARIDEVVSRAEKGLYNEHTVDRAPLRNKYFFGEGYTYGAQLQKRGPGQERLYPPGDVDEIPEWVHQLVIQKLVEHRVIPEGFVNSAVINDYQPGGCIVSHVDPIHIFERPIVSVSFFSDSALCFGCKFQFKPIRVSEPVLSLPVRRGSVTVLSGYAADEITHCIRPQDIKERRAVIILRKTRLDAPRLETKSLSSSVLPPSYASDRLSGNNRDPALKPKRSHRKADPDAAHRPRILEMDKEENRRSVLLPTHRRRGSFSSENYWRKSYESSEDCSEAAGSPARKVKMRRH
notes: AlkB homolog 5 (ALKBH5) cloned into the pGEX vector; also called recombinant ALKBH5; source: E. coli BL21 (DE3), purified (Glutathione Sepharose)
B1: the binding result is “binds”.

B2: recombinant K235-acetylated GST-ALKBH5 (enzyme, UniProt Q6P6C2 1-394, looked up)
chain: MAAASGYTDLREKLKSMTSRDNYKAGSREAAAAAAAAVAAAAAAAAAAEPYPVSGAKRKYQEDSDPERSDYEEQQLQKEEEARKVKSGIRQMRLFSQDECAKIEARIDEVVSRAEKGLYNEHTVDRAPLRNKYFFGEGYTYGAQLQKRGPGQERLYPPGDVDEIPEWVHQLVIQKLVEHRVIPEGFVNSAVINDYQPGGCIVSHVDPIHIFERPIVSVSFFSDSALCFGCKFQFKPIRVSEPVLSLPVRRGSVTVLSGYAADEITHCIRPQDIKERRAVIILRKTRLDAPRLETKSLSSSVLPPSYASDRLSGNNRDPALKPKRSHRKADPDAAHRPRILEMDKEENRRSVLLPTHRRRGSFSSENYWRKSYESSEDCSEAAGSPARKVKMRRH
modifications: acetyl-lysine at 235
notes: AlkB homolog 5 (ALKBH5) cloned into the pGEX vector; The same construct as m6 after treatment with KAT8; source: E. coli BL21 (DE3), purified (Glutathione Sepharose), then K235-acetylated by immunopurified KAT8
Turning to B2, the binding result is “binds”.
